Our source for the Km values is article PMC8121789, “Characterization of an engineered live bacterial therapeutic for the treatment of phenylketonuria in a human gut-on-a-chip” (Nature Communications, 2021).

Substrate in this data set: N[C@@H](Cc1ccccc1)C(=O)O
The experiment in a line: Phe consumption by live engineered cells, Michaelis-Menten model. To be noted: apparent whole-cell pathway value (PheP uptake plus PAL), not purified enzyme; in vitro Phe consumption assays. The class given is cell-based, Photorhabdus laumondii.

B1: phenylalanine ammonia lyase (PAL) (Photorhabdus laumondii subsp. laumondii TTO1) (protein)
chain: MKAKDVQPTIIINKNGLISLEDIYDIAIKQKKVEISTEITELLTHGREKLEEKLNSGEVIYGINTGFGGNANLVVPFEKIAEHQQNLLTFLSAGTGDYMSKPCIKASQFTMLLSVCKGWSATRPIVAQAIVDHINHDIVPLVPRYGSVGASGDLIPLSYIARALCGIGKVYYMGAEIDAAEAIKRAGLTPLSLKAKEGLALINGTRVMSGISAITVIKLEKLFKASISAIALAVEALLASHEHYDARIQQVKNHPGQNAVASALRNLLAGSTQVNLLSGVKEQANKACRHQEITQLNDTLQEVYSIRCAPQVLGIVPESLATARKILEREVISANDNPLIDPENGDVLHGGNFMGQYVARTMDALKLDIALIANHLHAIVALMMDNRFSRGLPNSLSPTPGMYQGFKGVQLSQTALVAAIRHDCAASGIHTLATEQYNQDIVSLGLHAAQDVLEMEQKLRNIVSMTILVVCQAIHLRGNISEIAPETAKFYHAVREISSPLITDRALDEDIIRIADAIINDQLPLPEIMLEE
notes: PAL genes inserted in chromosome of host E. coli Nissle 1917 strain SYN5183 (FNR and Ptac promoters), co-expressed with transporter PheP; live cells
A word on the Km: it is the substrate concentration at which the rate is half of its maximum. Take B1: the Michaelis constant (Km) is 200 µM.
